Results published in PMC6899042, “Perturbation of the titin/MURF1 signaling complex is associated with hypertrophic cardiomyopathy in a fish model and in human patients” (Disease Models & Mechanisms, 2019).

Target: T1, myc-tagged MURF1 (muscle-specific ring finger protein 1), full length (human, UniProt Q969Q1-1 1-353)
T1 construct: MURF1 (muscle-specific ring finger protein 1), human, full-length cDNA from bp137 to bp1198 of GenBank NM_032588, printed as aa1-aa354; Cloned into myc-tagged pCMV-Tag3. bp137-bp1198 is 354 codons, which may count the stop codon; source: COS-7 cells, transfected, in lysate (cell line named only for the A168-170 experiment)
Assay: co-IP; GFP-tagged TTN fragment co-transfected with myc-tagged MURF1 (COS-7 cells named for A168-170); IP with anti-myc antibody (Catch and Release v2.0 Reversible Immunoprecipitation System), Western blot with anti-GFP; densitometry normalised to the input amount of GFP-TTN, WT set to 1.00 AU
Conditions: partners not purified

T1 sequence (Q969Q1 whole entry, the tested form may be a part): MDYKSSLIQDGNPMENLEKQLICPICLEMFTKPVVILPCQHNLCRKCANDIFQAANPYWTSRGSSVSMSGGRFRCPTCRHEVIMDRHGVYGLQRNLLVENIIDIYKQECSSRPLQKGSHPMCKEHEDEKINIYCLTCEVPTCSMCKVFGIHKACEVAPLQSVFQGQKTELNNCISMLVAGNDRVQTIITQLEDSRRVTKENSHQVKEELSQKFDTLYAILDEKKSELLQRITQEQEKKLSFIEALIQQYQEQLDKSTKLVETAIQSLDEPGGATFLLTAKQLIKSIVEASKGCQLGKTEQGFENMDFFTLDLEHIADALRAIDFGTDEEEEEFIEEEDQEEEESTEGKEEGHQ

B1: GFP-tagged S30186A-TTN-A160-161 (titin domains A160-161 with the HCM-associated mutation S30186A) (domain or fragment, human, UniProt Q8WZ42-11 30134-30326, looked up)
chain: PDYELDERYQEGIFVRQGGVIRLTIPIKGKPFPICKWTKEGQDISKRAMIATAETHTELVIKEADRGDSGTYDLVLENKCGKKAVYIKVRVIGSPNSPEGPLEYDDIQVRSVRVSWRPPADDGGADILGYILERREVPKAAWYTIDSRVRGTSLVVKGLKENVEYHFRVSAENQFGISKPLKSEEPVTPKTPL
notes: numbers count on: the protein encoded by GenBank NM_133378; Cloned into pEGFP-C1; the mutation was found in a family with HCM
co-precipitated amount relative to WT TTN-A160-161 (1.00 AU): 3.11 AU

B2: GFP-tagged D30994N-TTN-A168-170 (titin domains A168-A170 with the HCM-associated mutation D30994N) (domain or fragment, human, UniProt Q8WZ42-11 30928-31228, looked up)
chain: PHFKEELRNLNVRYQSNATLVCKVTGHPKPIVKWYRQGKEIIADGLKYRIQEFKGGYHQLIIASVTNDDATVYQVRATNQGGSVSGTASLEVEVPAKIHLPKTLEGMGAVHALRGEVVSIKIPFSGKPDPVITWQKGQDLIDNNGHYQVIVTRSFTSLVFPNGVERKDAGFYVVCAKNRFGIDQKTVELDVADVPDPPRGVKVSDVSRDSVNLTWTEPASDGGSKITNYIVEKCATTAERWLRVGQARETRYTVINLFGKTSYQFRVIAENKFGLSKPSEPSEPTITKEDKTRAMNYDEEV
notes: numbers count on: the protein encoded by GenBank NM_133378; Cloned into pEGFP-C1; the mutation was found in a family with HCM; also called D30994N mutant TTN-A168-170; source: COS-7 cells, transfected, in lysate
co-precipitated amount relative to WT TTN-A168-170 (1.00 AU): 1.58 AU

B3: GFP-tagged WT-TTN-A169 (titin Ig domain A169) (domain or fragment, human, UniProt Q8WZ42-11 31022-31119, looked up)
chain: PAKIHLPKTLEGMGAVHALRGEVVSIKIPFSGKPDPVITWQKGQDLIDNNGHYQVIVTRSFTSLVFPNGVERKDAGFYVVCAKNRFGIDQKTVELDVA
notes: numbers count on: the protein encoded by GenBank NM_133378; Cloned into pEGFP-C1; also called A169 domain
co-precipitated amount relative to WT TTN-A168 (1.00 AU): 6.69 AU

B4: GFP-tagged D30994N-TTN-A168 (titin Ig domain A168 with the HCM-associated mutation D30994N) (domain or fragment, human, UniProt Q8WZ42-11 30928-31021, looked up)
chain: PHFKEELRNLNVRYQSNATLVCKVTGHPKPIVKWYRQGKEIIADGLKYRIQEFKGGYHQLIIASVTNDDATVYQVRATNQGGSVSGTASLEVEV
notes: numbers count on: the protein encoded by GenBank NM_133378; Cloned into pEGFP-C1; the mutation was found in a family with HCM; also called D30994N mutant TTN-A168
co-precipitated amount relative to WT TTN-A168 (1.00 AU): 3.06 AU

B5: GFP-tagged E29783V-TTN-A156 (titin Ig domain A156 with the equivalent of the medaka nsh mutation D23186V) (domain or fragment, human, UniProt Q8WZ42-11 29735-29829, looked up)
chain: LPTIDLSTMPQKTIHVPAGRPVELVIPIAGRPPPAASWFFAGSKLRESVRVTVETHTKVAKLTIRETTIRDTGEYTLELKNVTGTTSETIKVIIL
notes: numbers count on: the protein encoded by GenBank NM_133378; Cloned into pEGFP-C1; mutation made by primer-mediated mutagenesis; also called mutant-TTN-A156; nsh Ig domain
co-precipitated amount relative to WT TTN-A156 (1.00 AU): 9.23 AU
